This passage reports self-cleavage results from the RNAGym collection of RNA variant scans (doi:10.7554/elife.80360).

To fix the notation:
B1: Hairpin Ribozyme (parent)
chain: GUCCUCUUUCACGUGCGCGUGAAAGAGAGAAGUGAACCAGAGAAACACACGUUGUGGUAUAUUACCUGGUA

This data set covers variants of B1. As to the kind of experiment: self-cleavage, relative activity (ratio to wild type); higher = more cleavage; co-transcriptional.
Take A11U G40C: the self-cleavage stood at 0.178. To U14C G51A belongs 0.854; to G51U G68U, 0.318; to A44G G54C, 0.119. The same measure for G34U G57A: 0.887; for C3U C10U: 0.454; for A39C A41C: 0.349. To A22C G56U belongs 0.148.

For the variant A30C G69A, the self-cleavage was found to be 0.0574.

Take G17A U55C: the self-cleavage turned out to be 0.354. To A59C A64G belongs 0.1; to A43C A61C, 0.218. The same measure for U14C A28U: 0.668; for G42C A64G: 0.232; for G19U A41U: 1.24. The same measure for G13C U53G: 0.245; for G29A G68U: 0.306. In the case of G51U A71C, the self-cleavage is 1.46. To U8C G68A belongs 0.186; to C38A U52C, 0.193; to G27U A59C, 0.0836. With A22G U55C, the self-cleavage stood at 0.294.

For A22G C38A, the self-cleavage was 0.147.

With G1A U53C, the self-cleavage stood at 0.0768.

For G25U C66A, the self-cleavage worked out at 0.182. To U33G U63G belongs 0.198; to U20C A64U, 0.152; to U9A A23G, 0.559. To G27U A47G belongs 0.222; to C16U U67G, 0.367. C38U U67G: the self-cleavage turned out to be 0.204. To G34C A43G belongs 0.0982; to G19A G40A, 0.226; to U67G G69C, 0.13. The same measure for A39C G57C: 0.127. The same measure for G42C A44C: 0.0939; for G42C A44G: 0.137.

As to C10G U60C, the self-cleavage was found to be 0.815. To G54C U70C belongs 0.146; to C4A G17C, 0.225; to C37G A41G, 0.369.

Consider U2G U5G, for which the self-cleavage is 0.0759. To C3A U33G belongs 0.146; to C6A A35G, 0.619; to U53G U67A, 0.182.

Take U2C U70C: the self-cleavage stood at 0.16. To U8A C12G belongs 0.552; to U2G A59C, 0.223. To A30U G54A belongs 0.137; to G42A G68U, 0.144; to G34C A64G, 0.792.

In the case of G21C G56C, the self-cleavage came out at 0.209. For the variant G21C G56U, the self-cleavage was determined as 0.268.

G29U C37G: the self-cleavage came to 0.0458.

For the variant C10U U55C, the self-cleavage was determined as 0.337. Regarding C38G A43C, the self-cleavage is 0.198. To A28U belongs 0.656. To G57A A61U belongs 0.143; to G57A U70C, 0.274. The same measure for A43G C66U: 0.139. As to A41G C48U, the self-cleavage is 0.162.

Consider A41G C66U, for which the self-cleavage came to 0.682.

With U52A A59G, the self-cleavage worked out at 0.159.

For G32A A41U, the self-cleavage stood at 0.396. The same measure for A23C A35C: 0.797; for A35G G51C: 0.689; for A35U A41C: 0.957. The same measure for G32U A44G: 0.0996.

Turning to G25C U52A, the self-cleavage came to 0.594.

Consider A22G A26C, for which the self-cleavage is 0.649. The same measure for G21C C46U: 0.116; for U5A A43G: 0.0784. As to U62G A71G, the self-cleavage came out at 0.143. Regarding A61G G68C, the self-cleavage worked out at 0.195.

On to G29U U55C, for which the self-cleavage was found to be 0.0858. To G19C A23G belongs 0.611; to C37A A45C, 0.189; to U2C A36U, 0.207. On to A49U A71U, for which the self-cleavage was 0.146. As for A22C G42U, the self-cleavage was 0.239.

Turning to U2C G57C, the self-cleavage was determined as 0.242. To C12A G19A belongs 0.876. To C4G G25C belongs 0.157; to C18G G56A, 0.14; to A39G G51U, 0.36.

On to G17U A30U, for which the self-cleavage came to 0.116. To C10U A39C belongs 0.458; to G19U U70C, 0.722; to U58C U70C, 0.945. The same measure for A23G A61U: 0.138; for C12A U52G: 0.757. To U5G G34U belongs 1.08. On to A11G A23C, for which the self-cleavage came to 0.596. To A31G U70A belongs 0.509; to C4A A47U, 0.0985. The same measure for G15A A44U: 0.196; for G29C G54A: 0.1; for U2A A43C: 0.114. Turning to A59U C65A, the self-cleavage amounted to 0.19. The same measure for G40A A45C: 0.0818; for G13C G56A: 0.137.

Consider G32C A39C, for which the self-cleavage turned out to be 0.135. To G1A G29C belongs 0.196.

In the case of A11C U52A, the self-cleavage came to 0.762. To G21A A30C belongs 0.128; to A23U G32C, 0.231.

Take A23C C48G: the self-cleavage was 0.0948. To A23U C37A belongs 0.324; to G19A U33G, 0.175; to G54C U60A, 0.272.

As to A30C G34U, the self-cleavage worked out at 0.815.

A61G C65G: the self-cleavage was 0.303. The same measure for A11C G15U: 0.996. Take A31U G57C: the self-cleavage stood at 0.155. The same measure for C3A A24G: 0.704; for U14A A30C: 0.222. For A26U G56U, the self-cleavage came out at 0.279. On to C10A G17U, for which the self-cleavage is 0.681. To A45C C46U belongs 0.067. To C50U U60C belongs 0.729; to G13A A64C, 0.178.

For the variant A28U A45G, the self-cleavage was determined as 0.121.

In the case of U5A G13C, the self-cleavage worked out at 0.19.

Turning to U14A A24U, the self-cleavage was 0.644. In the case of A49C A59U, the self-cleavage came to 0.287. To G13A G68A belongs 0.275; to U2C U33G, 0.0942; to A28U G56C, 0.151. The same measure for G27U G42C: 0.0625.

Consider G32C A71G, for which the self-cleavage stood at 0.238.

Turning to A49C U55G, the self-cleavage came out at 0.343. The same measure for U2C G68U: 0.161; for U9A U20C: 0.773; for G21C A61C: 0.151. To C4U U60C belongs 0.48; to G29C U52A, 0.129; to G29C U52G, 0.0183. The same measure for G1U U52G: 0.143; for A26G G42C: 0.357; for U20A G27U: 0.203.

Take C46G U60A: the self-cleavage amounted to 0.091. C46G U60G: the self-cleavage turned out to be 0.151. To G32A A43G belongs 0.141; to C3A U60G, 0.338. The same measure for A28C C46G: 0.0967. The same measure for U9C U63G: 0.169; for G21A C38G: 0.239. For the variant G19U C37G, the self-cleavage was 0.341.

For the variant G25C G54C, the self-cleavage turned out to be 0.139. To A41G G57U belongs 0.184; to C3G C50U, 0.13; to U9A G40U, 0.119.

Consider A43C U60A, for which the self-cleavage stood at 0.162. To G15C C65U belongs 0.352. On to C46A U52A, for which the self-cleavage is 0.196.

As to U8A A28G, the self-cleavage turned out to be 0.684. To A35U U62G belongs 0; to G19C U52G, 0.898; to G51U A59U, 0.0798. On to A35U A36C, for which the self-cleavage came to 0.264.

Take U8A G17U: the self-cleavage was 0.79. To C4U U9G belongs 0.178; to U20G G42U, 0.245.

For the variant C18A A30C, the self-cleavage is 0.166. The same measure for A23U G69A: 0.335. The same measure for A41G G54C: 0.672. The same measure for A41G G54A: 0.481.
